Source: patent US20150329642A1

Key:
cMetECDHis (human) [1] = biological target: cMetECDHis (human) (UniProt P08581); experiment: cross-block ELISA; competitor 045
cMetECDHis (human) [2] = biological target: cMetECDHis (human) (UniProt P08581); experiment: cross-block ELISA; competitor 035
cMetECDHis (human) [3] = biological target: cMetECDHis (human) (UniProt P08581); experiment: cross-block ELISA; competitor 006
cMetECDHis (human) [4] = biological target: cMetECDHis (human) (UniProt P08581); experiment: cross-block ELISA; competitor 008
cMetECDHis (human) [5] = biological target: cMetECDHis (human) (UniProt P08581); experiment: cross-block ELISA; competitor 181
[6] = biological target: recombinant human c-Met extracellular domain (R&D systems) (human) (UniProt P08581); experiment: competition ELISA on coated recombinant c-Met extracellular domain; blocked ligand Europium-conjugated HGF; column headed EC50 on the sheet, called IC50 in paragraph 270; upper panel
cMetECDHis (human) [7] = biological target: cMetECDHis (human) (UniProt P08581); experiment: cross-block ELISA; competitor 024
cMetECDHis (human) [8] = biological target: cMetECDHis (human) (UniProt P08581); experiment: cross-block ELISA; competitor 064
cMetECDHis (human) [9] = biological target: cMetECDHis (human) (UniProt P08581); experiment: BLI (Octet); antibody captured, cMetECDHis in solution
[10] = biological target: human c-Met, membrane-bound on cells (human) (UniProt P08581); experiment: flow cytometry on A431 cells (PE goat anti-human IgG); top panel
cMetECDHis (human) [11] = biological target: cMetECDHis (human) (UniProt P08581); experiment: cross-block ELISA; competitor 069
cMetECDHis (human) [12] = biological target: cMetECDHis (human) (UniProt P08581); experiment: cross-block ELISA; competitor 068
cMetECDHis (human) [13] = biological target: cMetECDHis (human) (UniProt P08581); experiment: cross-block ELISA; competitor 022
cMetECDHis (human) [14] = biological target: cMetECDHis (human) (UniProt P08581); experiment: cross-block ELISA; competitor 101
[15] = biological target: recombinant human c-Met extracellular domain (R&D systems) (human) (UniProt P08581); experiment: competition ELISA, residual Europium-HGF signal at 615 nm at the lower plateau of the fit; sheet prints no competing mAb ~66000, no HGF-Europium ~600; upper panel
cMetECDHis (human) [16] = biological target: cMetECDHis (human) (UniProt P08581); experiment: cross-block ELISA; competitor 005
cMetECDHis (human) [17] = biological target: cMetECDHis (human) (UniProt P08581); experiment: cross-block ELISA; competitor G11-HZ
cMetSEMA-567His8 (human) = cMetSEMA-567His8 (human) (UniProt P08581); experiment: TR-FRET; displacement of AlexaFluor-647-HGF from cMetSEMA-567His8
cMetECDHis (human) [18] = biological target: cMetECDHis (human) (UniProt P08581); experiment: cross-block ELISA; competitor 058
cMetECDHis (human) [19] = biological target: cMetECDHis (human) (UniProt P08581); experiment: cross-block ELISA; competitor 5D5
cMetECDHis (human) [20] = biological target: cMetECDHis (human) (UniProt P08581); experiment: cross-block ELISA; competitor 098
cMetECDHis (human) [21] = biological target: cMetECDHis (human) (UniProt P08581); experiment: cross-block ELISA; competitor 062

## IgG1-5D5 (antibody)
cMetECDHis (human) [1]
  residual binding, % of no competitor: 83.9%
cMetECDHis (human) [2]
  residual binding, % of no competitor: 98.1%
cMetECDHis (human) [3]
  residual binding, % of no competitor: 58.8%
cMetECDHis (human) [4]
  residual binding, % of no competitor: 90.2%
cMetECDHis (human) [5]
  residual binding, % of no competitor: 103%
[6]
  IC50: 0.0244 µg/mL
cMetECDHis (human) [7]
  residual binding, % of no competitor: 94.2%
cMetECDHis (human) [8]
  residual binding, % of no competitor: 97.1%
cMetECDHis (human) [9]
  Kd: 5.86 nM
  koff: 0.00125 s⁻¹
  kon: 214000 M⁻¹ s⁻¹
[10]
  EC50: 0.531 nM
cMetECDHis (human) [11]
  residual binding, % of no competitor: 99.6%
cMetECDHis (human) [12]
  residual binding, % of no competitor: 97.8%
cMetECDHis (human) [13]
  residual binding, % of no competitor: 12.4%
cMetECDHis (human) [14]
  residual binding, % of no competitor: 97.9%
[15]
  Bottom: 6350 RFU
cMetECDHis (human) [16]
  residual binding, % of no competitor: 42.3%
cMetECDHis (human) [17]
  residual binding, % of no competitor: 97.3%
cMetSEMA-567His8 (human)
  % inhibition: 95%
  IC50: 0.2 µg/mL
cMetECDHis (human) [18]
  residual binding, % of no competitor: 6.6%
cMetECDHis (human) [19]
  residual binding, % of no competitor: 4.1%
cMetECDHis (human) [20]
  residual binding, % of no competitor: 97.6%
cMetECDHis (human) [21]
  residual binding, % of no competitor: 97.6%

## IgG4-5D5 (antibody)
[10]
  EC50: 0.966 nM
